Source: patent publication US20050261179

Experiments:
[1] = test system: adrenomedullin (synthetic human AM)
[2] = target: human complement factor H (UniProt P08603)
Chain of human complement factor H (P08603 19-1231): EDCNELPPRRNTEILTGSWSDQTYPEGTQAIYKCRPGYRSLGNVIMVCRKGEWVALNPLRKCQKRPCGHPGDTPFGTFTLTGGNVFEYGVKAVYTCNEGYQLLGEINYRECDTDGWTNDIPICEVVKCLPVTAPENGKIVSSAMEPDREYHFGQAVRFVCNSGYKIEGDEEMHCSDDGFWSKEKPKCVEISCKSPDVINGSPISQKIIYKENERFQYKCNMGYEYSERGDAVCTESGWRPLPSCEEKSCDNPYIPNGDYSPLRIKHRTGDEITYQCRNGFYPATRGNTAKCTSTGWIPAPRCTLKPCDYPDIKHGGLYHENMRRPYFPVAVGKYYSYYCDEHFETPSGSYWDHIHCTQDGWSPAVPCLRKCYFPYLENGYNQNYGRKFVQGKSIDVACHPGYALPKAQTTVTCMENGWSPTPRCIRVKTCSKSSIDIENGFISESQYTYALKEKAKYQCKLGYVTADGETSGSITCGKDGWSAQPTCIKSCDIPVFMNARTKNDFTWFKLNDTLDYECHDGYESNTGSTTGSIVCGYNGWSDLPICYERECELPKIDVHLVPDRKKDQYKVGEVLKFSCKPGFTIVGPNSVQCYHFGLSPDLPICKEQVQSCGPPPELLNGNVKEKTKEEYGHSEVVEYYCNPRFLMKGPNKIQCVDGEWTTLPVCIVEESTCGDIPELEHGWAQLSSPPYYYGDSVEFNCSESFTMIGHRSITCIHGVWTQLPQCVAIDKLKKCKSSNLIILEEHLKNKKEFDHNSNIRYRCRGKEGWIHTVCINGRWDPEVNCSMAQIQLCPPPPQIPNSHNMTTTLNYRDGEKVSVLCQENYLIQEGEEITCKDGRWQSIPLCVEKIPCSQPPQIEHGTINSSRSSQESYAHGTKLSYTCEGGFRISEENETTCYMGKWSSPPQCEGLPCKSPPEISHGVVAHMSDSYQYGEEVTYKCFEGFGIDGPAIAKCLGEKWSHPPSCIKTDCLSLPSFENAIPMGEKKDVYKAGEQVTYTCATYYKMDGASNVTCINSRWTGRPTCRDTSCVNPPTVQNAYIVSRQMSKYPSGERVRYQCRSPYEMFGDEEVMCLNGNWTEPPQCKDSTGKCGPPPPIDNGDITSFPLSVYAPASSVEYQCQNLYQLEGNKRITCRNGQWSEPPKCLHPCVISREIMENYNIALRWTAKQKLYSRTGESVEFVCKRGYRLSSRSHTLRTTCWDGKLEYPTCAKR

## human recombinant MMP-9
[1]
  degradation of synthetic AM (gel): The resistance of AM to degradation by MMP-9
[2]
  degradation of factor H (gel): is not a substrate for either one of the MMPs
